Measurements taken from patent US20210371518A1 (University of Texas, published 2021).
Values joined by “and” are separate entries in the source; they are usually repeats but may differ in a detail not shown here. Equal entries are not always repeated.

Columns and labels:
[1] = molecular target: T1, human LILRB4 extracellular domain (ECD) recombinant protein (human, UniProt Q8NHJ6 22-259); test: Octet
T1 construct: extracellular domain; also called LILRB4 ECD; LILRB4-ECD

[2] = molecular target: T1, human LILRB4 extracellular domain (ECD) …; test: ELISA
LILRB5 = LILRB5 (human (not printed on the sheet), UniProt O75023); test: LILR reporter cells on coated antibody, GFP positive (%)
LILRB5, sequence (O75023 24-458 limits assumed): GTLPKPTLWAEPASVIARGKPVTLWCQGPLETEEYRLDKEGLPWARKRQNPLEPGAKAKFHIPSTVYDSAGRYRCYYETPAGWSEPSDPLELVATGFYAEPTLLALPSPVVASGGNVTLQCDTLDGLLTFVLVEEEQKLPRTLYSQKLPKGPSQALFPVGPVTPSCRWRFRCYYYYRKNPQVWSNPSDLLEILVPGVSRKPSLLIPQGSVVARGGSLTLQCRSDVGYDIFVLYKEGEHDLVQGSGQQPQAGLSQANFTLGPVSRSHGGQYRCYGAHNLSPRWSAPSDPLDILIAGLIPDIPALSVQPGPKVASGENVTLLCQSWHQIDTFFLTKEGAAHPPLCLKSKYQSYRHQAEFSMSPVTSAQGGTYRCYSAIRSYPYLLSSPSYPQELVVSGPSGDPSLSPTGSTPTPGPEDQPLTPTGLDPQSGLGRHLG
Description: (§1) FIGS. 41A-41M illustrate specific binding of h193 antibodies to LILRB4 protein. FIGS. 41A-41L illustrate the specificity of h193 antibodies determined by LILR reporter assays, in which LILR reporter cells are added to the plates coated with h193 antibodies. The binding of h193 antibodies to the ECD of the LILR member on the surface of the reporter cells induced GFP signal. FIG. 41M illustrates the specificity of an exemplary h193 antibody determined by ELISA. LILRA and LILRB recombinant proteins were coated on high absorption 96-well plates. Serial diluted (5-fold) mAb h193 were added to the coated/blocked plates and detected using goat anti-human IgG F(ab)2 conjugated HRP as secondary antibody.

LILRA5 = LILRA5 (human (not printed on the sheet), UniProt A6NI73); test: as above
LILRA5, sequence (A6NI73 42-268 limits assumed): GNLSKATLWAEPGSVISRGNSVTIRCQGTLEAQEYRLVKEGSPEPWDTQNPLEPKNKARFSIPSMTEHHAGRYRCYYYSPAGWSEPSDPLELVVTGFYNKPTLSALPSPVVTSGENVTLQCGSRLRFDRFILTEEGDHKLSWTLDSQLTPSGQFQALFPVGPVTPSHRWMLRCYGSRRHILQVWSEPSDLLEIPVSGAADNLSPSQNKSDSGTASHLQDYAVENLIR
Description: as §1

LILRA3 = LILRA3 (human (not printed on the sheet), UniProt Q8N6C8); test: as above
LILRA3, sequence (Q8N6C8 24-439 limits assumed): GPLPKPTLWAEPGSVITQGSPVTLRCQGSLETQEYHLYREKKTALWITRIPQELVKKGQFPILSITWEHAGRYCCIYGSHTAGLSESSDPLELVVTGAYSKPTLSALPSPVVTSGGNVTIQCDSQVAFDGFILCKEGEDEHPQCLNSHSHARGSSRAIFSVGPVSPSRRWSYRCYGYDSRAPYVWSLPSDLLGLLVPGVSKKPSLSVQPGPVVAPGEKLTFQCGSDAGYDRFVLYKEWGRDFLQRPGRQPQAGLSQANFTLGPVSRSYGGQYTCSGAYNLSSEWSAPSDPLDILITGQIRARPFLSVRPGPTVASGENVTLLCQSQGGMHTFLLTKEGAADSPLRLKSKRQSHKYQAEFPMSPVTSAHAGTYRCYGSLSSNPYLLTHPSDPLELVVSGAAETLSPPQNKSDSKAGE
Description: as §1

LILRB2 = LILRB2 (human (not printed on the sheet), UniProt Q8N423); test: as above
LILRB2, sequence (Q8N423 22-460 limits assumed): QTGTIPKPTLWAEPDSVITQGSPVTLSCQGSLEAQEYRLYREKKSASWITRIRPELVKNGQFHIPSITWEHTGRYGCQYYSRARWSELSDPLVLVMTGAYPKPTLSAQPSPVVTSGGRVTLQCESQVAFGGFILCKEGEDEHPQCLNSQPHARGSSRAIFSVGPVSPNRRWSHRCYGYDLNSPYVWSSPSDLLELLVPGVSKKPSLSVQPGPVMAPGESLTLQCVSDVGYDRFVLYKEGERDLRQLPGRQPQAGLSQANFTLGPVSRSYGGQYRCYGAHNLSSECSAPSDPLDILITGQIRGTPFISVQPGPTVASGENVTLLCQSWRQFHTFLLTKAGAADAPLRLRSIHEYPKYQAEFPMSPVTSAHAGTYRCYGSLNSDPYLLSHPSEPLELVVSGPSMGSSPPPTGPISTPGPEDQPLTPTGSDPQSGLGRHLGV
Description: as §1

LILRA6 = LILRA6 (human (not printed on the sheet), UniProt Q6PI73); test: as above
LILRA6, sequence (Q6PI73 24-447 limits assumed): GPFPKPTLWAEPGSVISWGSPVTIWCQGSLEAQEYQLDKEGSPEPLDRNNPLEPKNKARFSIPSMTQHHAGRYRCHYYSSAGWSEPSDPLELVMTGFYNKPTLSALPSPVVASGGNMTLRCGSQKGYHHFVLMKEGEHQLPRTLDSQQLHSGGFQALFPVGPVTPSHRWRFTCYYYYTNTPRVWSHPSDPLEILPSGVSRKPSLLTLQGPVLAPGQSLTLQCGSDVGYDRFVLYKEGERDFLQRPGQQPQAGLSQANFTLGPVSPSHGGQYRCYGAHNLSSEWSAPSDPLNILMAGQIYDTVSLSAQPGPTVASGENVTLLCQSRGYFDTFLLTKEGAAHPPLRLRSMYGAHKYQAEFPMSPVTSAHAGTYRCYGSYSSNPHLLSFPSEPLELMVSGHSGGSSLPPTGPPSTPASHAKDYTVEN
Description: as §1

LILRB1 = LILRB1 (human (not printed on the sheet), UniProt Q8NHL6); test: as above
LILRB1, sequence (Q8NHL6 24-461 limits assumed): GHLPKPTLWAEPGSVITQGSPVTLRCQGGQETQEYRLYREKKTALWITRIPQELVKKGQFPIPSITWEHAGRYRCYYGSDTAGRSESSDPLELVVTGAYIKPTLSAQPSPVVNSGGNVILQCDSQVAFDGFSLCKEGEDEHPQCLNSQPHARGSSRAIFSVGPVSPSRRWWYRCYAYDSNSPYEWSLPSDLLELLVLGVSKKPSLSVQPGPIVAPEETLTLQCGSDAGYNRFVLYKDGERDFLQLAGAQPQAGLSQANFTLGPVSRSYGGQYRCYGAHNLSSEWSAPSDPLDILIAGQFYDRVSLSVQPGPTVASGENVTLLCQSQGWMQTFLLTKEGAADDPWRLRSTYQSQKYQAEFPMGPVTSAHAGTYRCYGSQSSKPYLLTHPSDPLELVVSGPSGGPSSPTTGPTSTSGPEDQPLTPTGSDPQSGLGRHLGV
Description: as §1

LILRA2 = LILRA2 (human (not printed on the sheet), UniProt Q8N149); test: as above
LILRA2, sequence (Q8N149 24-449 limits assumed): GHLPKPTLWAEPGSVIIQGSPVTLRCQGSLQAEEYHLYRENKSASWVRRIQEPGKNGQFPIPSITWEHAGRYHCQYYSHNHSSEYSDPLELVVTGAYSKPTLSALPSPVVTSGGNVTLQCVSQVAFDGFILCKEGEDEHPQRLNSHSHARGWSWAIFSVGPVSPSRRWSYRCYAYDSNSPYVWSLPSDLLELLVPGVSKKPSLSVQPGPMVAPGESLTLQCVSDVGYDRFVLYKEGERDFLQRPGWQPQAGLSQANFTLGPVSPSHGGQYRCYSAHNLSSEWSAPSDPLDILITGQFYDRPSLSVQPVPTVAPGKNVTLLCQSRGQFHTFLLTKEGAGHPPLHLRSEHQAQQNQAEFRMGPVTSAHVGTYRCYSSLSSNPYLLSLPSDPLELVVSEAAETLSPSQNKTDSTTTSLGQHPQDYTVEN
Description: as §1

LILRA1 = LILRA1 (human (not printed on the sheet), UniProt O75019); test: as above
LILRA1, sequence (O75019 17-461 limits assumed): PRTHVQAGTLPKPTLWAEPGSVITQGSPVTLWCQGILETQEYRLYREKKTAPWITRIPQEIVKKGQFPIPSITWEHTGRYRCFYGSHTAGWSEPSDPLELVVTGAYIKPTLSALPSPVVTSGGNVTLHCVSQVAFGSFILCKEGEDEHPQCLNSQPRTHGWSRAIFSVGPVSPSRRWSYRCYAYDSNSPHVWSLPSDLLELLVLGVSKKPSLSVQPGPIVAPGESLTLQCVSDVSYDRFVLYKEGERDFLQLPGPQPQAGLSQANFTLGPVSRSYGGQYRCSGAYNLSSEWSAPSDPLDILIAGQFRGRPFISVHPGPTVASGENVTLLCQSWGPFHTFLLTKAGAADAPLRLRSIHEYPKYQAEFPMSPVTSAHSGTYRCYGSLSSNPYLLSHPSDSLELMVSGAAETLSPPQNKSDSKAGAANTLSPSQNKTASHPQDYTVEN
Description: as §1

LILRA4 = LILRA4 (human (not printed on the sheet), UniProt P59901); test: as above
LILRA4, sequence (P59901 24-446 limits assumed): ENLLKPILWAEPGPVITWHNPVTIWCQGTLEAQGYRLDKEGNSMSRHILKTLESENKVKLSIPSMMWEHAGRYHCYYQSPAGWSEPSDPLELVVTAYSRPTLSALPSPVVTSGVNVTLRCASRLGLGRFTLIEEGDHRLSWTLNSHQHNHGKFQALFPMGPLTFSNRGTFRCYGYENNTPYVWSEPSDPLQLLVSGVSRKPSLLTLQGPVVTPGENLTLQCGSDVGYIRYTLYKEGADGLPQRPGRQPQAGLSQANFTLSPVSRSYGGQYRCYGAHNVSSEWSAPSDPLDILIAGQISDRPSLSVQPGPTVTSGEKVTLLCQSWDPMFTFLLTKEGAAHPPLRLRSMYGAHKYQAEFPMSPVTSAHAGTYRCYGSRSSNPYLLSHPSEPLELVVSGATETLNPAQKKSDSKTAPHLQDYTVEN
Description: as §1

LILRB3 = LILRB3 (human (not printed on the sheet), UniProt O75022); test: as above
LILRB3, sequence (O75022 24-443 limits assumed): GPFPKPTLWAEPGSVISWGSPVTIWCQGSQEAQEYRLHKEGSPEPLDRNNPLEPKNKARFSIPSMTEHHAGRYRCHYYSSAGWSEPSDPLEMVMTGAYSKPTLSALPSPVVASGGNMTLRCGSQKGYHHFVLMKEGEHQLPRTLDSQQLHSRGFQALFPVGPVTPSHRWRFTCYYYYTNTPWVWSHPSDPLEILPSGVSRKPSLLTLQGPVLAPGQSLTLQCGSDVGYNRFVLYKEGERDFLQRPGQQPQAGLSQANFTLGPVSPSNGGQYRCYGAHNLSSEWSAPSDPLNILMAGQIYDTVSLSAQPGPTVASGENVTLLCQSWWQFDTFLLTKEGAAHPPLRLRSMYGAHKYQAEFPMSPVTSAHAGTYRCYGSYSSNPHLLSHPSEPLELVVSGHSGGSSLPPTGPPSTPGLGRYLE
Description: as §1

Binder	Kd [1]	koff [1]	kon [1]	EC50 [2]	binding result (LILRB5)	binding result (LILRA5)	binding result (LILRA3)	binding result (LILRB2)	binding result (LILRA6)	binding result (LILRB1)	binding result (LILRA2)	binding result (LILRA1)	binding result (LILRA4)	binding result (LILRB3)
h193 antibody No. 19 (h193-H3 / h193-K1) (antibody, V domains shown) VH: EVQLVESGGGLVQPGGSLRLSCAASGFSLSSSYWISWVRQAPGKGLEWIGSIDSGSVGITYYATWAKGRFTISRDNSKNTLYLQMNSLRAEDTAVYYCARHGDNWALDLWGQGTLVTVSS VL: DIQMTQSPSTLSASVGDRVTITCQASQSINSWLAWYQQKPGKAPKLLIYKASTLASGVPSRFSGSGSGTEFTLTISSLQPDDFATYYCQHGYIRGDLDNVFGGGTKVEIK	2.03 nM	0.000294 s⁻¹	145000 M⁻¹ s⁻¹	0.294 µg/mL and 1.96 nM	no binding	no binding	no binding	no binding	no binding	no binding	no binding	no binding	no binding	no binding
h193 antibody No. 23 (h193-H4 / h193-K1) (antibody, V domains shown) VH: EVQLVESGGGLVQPGGSLRLSCAASGFSLSSSYWISWVRQAPGKGLEWVSSIDSGSVGITYYATWAKGRFTISRDNSKNTLYLQMNSLRAEDTAVYYCARHGDNWALDLWGQGTLVTVSS VL: DIQMTQSPSTLSASVGDRVTITCQASQSINSWLAWYQQKPGKAPKLLIYKASTLASGVPSRFSGSGSGTEFTLTISSLQPDDFATYYCQHGYIRGDLDNVFGGGTKVEIK	5.83 nM	0.000731 s⁻¹	125000 M⁻¹ s⁻¹	0.461 µg/mL and 3.07 nM	no binding	no binding	no binding	no binding	no binding	no binding	no binding	no binding	no binding	no binding
h193 antibody No. 24 (h193-H4 / h193-K2) (antibody, V domains shown) VH: EVQLVESGGGLVQPGGSLRLSCAASGFSLSSSYWISWVRQAPGKGLEWVSSIDSGSVGITYYATWAKGRFTISRDNSKNTLYLQMNSLRAEDTAVYYCARHGDNWALDLWGQGTLVTVSS VL: DLVMTQSPSTLSASVGDRVTITCQASQSINSWLAWYQQKPGKPPKLLIYKASTLASGVSSRFSGSGSGTEFTLTISSLQPDDVATYYCQHGYIRGDLDNVFGGGTKVEIK	4.41 nM	0.000595 s⁻¹	135000 M⁻¹ s⁻¹	0.467 µg/mL and 3.11 nM	no binding	no binding	no binding	no binding	no binding	no binding	no binding	no binding	no binding	no binding
h193 antibody No. 31 (h193-H6 / h193-K1) (antibody, V domains shown) VH: EVQLVESGGGLVQPGGSLRLSCAASGFSLSSSYWISWVRQAPGKGLEWIGSIDSGSVGITYYATSAKGRFTISRDNSKNTLYLQMNSLRAEDTAVYYCARHGDNWALDLWGQGTLVTVSS VL: DIQMTQSPSTLSASVGDRVTITCQASQSINSWLAWYQQKPGKAPKLLIYKASTLASGVPSRFSGSGSGTEFTLTISSLQPDDFATYYCQHGYIRGDLDNVFGGGTKVEIK	2.61 nM	0.000376 s⁻¹	144000 M⁻¹ s⁻¹	0.314 µg/mL and 2.09 nM	no binding	no binding	no binding	no binding	no binding	no binding	no binding	no binding	no binding	no binding
h193 antibody No. 28 (h193-H5 / h193-K2) (antibody, V domains shown) VH: EVQLVESGGGLVQPGGSLRLSCAASGFSLSSSYWISWVRQAPGKGLEWIGVIDSGSVGITYYATWAKGRFTISRDNSKNTLYLQMNSLRAEDTAVYYCARHGDNWALDLWGQGTLVTVSS VL: DLVMTQSPSTLSASVGDRVTITCQASQSINSWLAWYQQKPGKPPKLLIYKASTLASGVSSRFSGSGSGTEFTLTISSLQPDDVATYYCQHGYIRGDLDNVFGGGTKVEIK					no binding	no binding	no binding	no binding	no binding	no binding	no binding	no binding	no binding	no binding
h193 antibody No. 33 (h193-H6 / h193-K3) (antibody, V domains shown) VH: EVQLVESGGGLVQPGGSLRLSCAASGFSLSSSYWISWVRQAPGKGLEWIGSIDSGSVGITYYATSAKGRFTISRDNSKNTLYLQMNSLRAEDTAVYYCARHGDNWALDLWGQGTLVTVSS VL: DIQMTQSPSTLSASVGDRVTITCRASQSINSWLAWYQQKPGKAPKLLIYKASTLASGVPSRFSGSGSGTEFTLTISSLQPDDFATYYCQHGYIRGDLDNVFGGGTKVEIK	2.33 nM	0.000345 s⁻¹	148000 M⁻¹ s⁻¹	0.32 µg/mL and 2.13 nM	no binding	no binding	no binding	no binding	no binding	no binding	no binding	no binding	no binding	no binding
h193 antibody No. 20 (h193-H3 / h193-K2) (antibody, V domains shown) VH: EVQLVESGGGLVQPGGSLRLSCAASGFSLSSSYWISWVRQAPGKGLEWIGSIDSGSVGITYYATWAKGRFTISRDNSKNTLYLQMNSLRAEDTAVYYCARHGDNWALDLWGQGTLVTVSS VL: DLVMTQSPSTLSASVGDRVTITCQASQSINSWLAWYQQKPGKPPKLLIYKASTLASGVSSRFSGSGSGTEFTLTISSLQPDDVATYYCQHGYIRGDLDNVFGGGTKVEIK	1.67 nM	0.00025 s⁻¹	150000 M⁻¹ s⁻¹	0.272 µg/mL and 1.81 nM	no binding	no binding	no binding	no binding	no binding	no binding	no binding	no binding	no binding	no binding
h193 antibody No. 32 (h193-H6 / h193-K2) (antibody, V domains shown) VH: EVQLVESGGGLVQPGGSLRLSCAASGFSLSSSYWISWVRQAPGKGLEWIGSIDSGSVGITYYATSAKGRFTISRDNSKNTLYLQMNSLRAEDTAVYYCARHGDNWALDLWGQGTLVTVSS VL: DLVMTQSPSTLSASVGDRVTITCQASQSINSWLAWYQQKPGKPPKLLIYKASTLASGVSSRFSGSGSGTEFTLTISSLQPDDVATYYCQHGYIRGDLDNVFGGGTKVEIK	2.38 nM	0.000362 s⁻¹	152000 M⁻¹ s⁻¹	0.262 µg/mL and 1.74 nM	no binding	no binding	no binding	no binding	no binding	no binding	no binding	no binding	no binding	no binding
h193 antibody No. 27 (h193-H5 / h193-K1) (antibody, V domains shown) VH: EVQLVESGGGLVQPGGSLRLSCAASGFSLSSSYWISWVRQAPGKGLEWIGVIDSGSVGITYYATWAKGRFTISRDNSKNTLYLQMNSLRAEDTAVYYCARHGDNWALDLWGQGTLVTVSS VL: DIQMTQSPSTLSASVGDRVTITCQASQSINSWLAWYQQKPGKAPKLLIYKASTLASGVPSRFSGSGSGTEFTLTISSLQPDDFATYYCQHGYIRGDLDNVFGGGTKVEIK				> 6 nM	no binding	no binding	no binding	no binding	no binding	no binding	no binding	no binding	no binding	no binding
